# Laboratory results published in a protein production outcome set (Wang et al. 2014).
# Experiment: label from the status in PepcDB records
row,Sequence,protein production
1,MRKNKLSFKEKAGAEQEECLCFCEGEASREAMFQAPIELPEGFVVDPAEAVANVTWNADSLSCVSDRCLIQTGPEPDEVGVQFAVRLQGTVTLLVSVSPVRNQYGQGDGAVSVIHNAEIDQVVYYSDESDDCPDISDITIENLVVVPPFYGSPLSVTGTIVLVPEPEPVYAFTANPNDQSVSVIDTNTDTVVTTIALPYNPAGIEITPDKSAVFVLHPNNNVISVIDYDTLTVTATILLDQPPRLIRFIPNHEFAYVFTGTAVYVIGIDTLTVDRSIPVEGYDVAIDPNGLFAYVLNFGIVQKVDLTTGEVTGTIERELIVSTIETNWPERYAYVLEQEFFFNYLTVIDLNTFTISSTQELEYEGEYRMFTSGAEVYLYDGFTGNLYSVSPNGAGVIGNVPQSATDYAFTPNGDFLYATRFIEQSIIVYNTDDYSEETVISLGVSPGAITILEHHHHHH,not failed
2,MRKRYVMTEQVQSGPRLDWLLDGLVDRIPEIRCAIVLSGDGLLIGKSKNLRRDDAEHLSAVGSGMHSLARGAARHFHGGEVQQTVIQMDRAFLFVTAAGRGARLAAIASEQVDVGMMAFEMGTLVKQVGQYLSAAPRVETPSAGHIQDA,failed
3,MRKSLKMTIGIGLILSCFGLILVGIGLSSGGIDKLQVKDDQAPKKEVQFDNIQSLDLDLSVRNIKIESSQDQHFKLTYYKKLDEEISHKVQHQKLNLKQKEKFRIHFFVLSDFFNWFHQDDTNTVTLAIPKNVQLKDVSIKNNVGDITIKNQQASKITVHQNTGNLNIYNSQIAKGKVSSDVGNIAIQNSSLSNIDVVDHTGDISAENLTVLNLVRMTNNIGNTNVSLSPQSAQATIVSTKTDVGHTDISHQLLQGYSGKNRLAVKGDTGNIQIK,failed
4,MRKVSISILFMLVSLTWGTTWLAMRIAVETIPPVFATGMRFMFAAPFLIIIAWLRKKTLLFPPGQRLFQFVICIFYFSIPFSLMIYGETYVNSGLAAIIFANMPVAVLIASVLFLNEKAKLMQIAGLTIAITALTGILLEEANTSTESHWQGITALISAVLIHAIIYTQCKKRSCTVSVITFNALPCLLAGLILSATGWFFERPQVSTFSVHSILATLYLGAFAGVFGILCYFALQQKANAFQASLVFLIFPLIAVSLEDYIYGYAISTHSMLLIIPLAIGIFLTLVARNIPVTSRCRDNSSQE,failed
5,MRKYLLIGVSAFVLGAGTMAYISPIAQANNAPKAQTYKLLELFGDVLGTVEDQYVTEVDDKKLIEAALDGMLTSLDPHSGYLAPDAFEDMQDTTRGEYGGLGLEVTSEEGVVKVISPMDGTPASRAGIQAGDYITAVNGQSVLGLTVNEAVKQMRGTAGEAVTLTIAREKTDPFDVKLVREVIKPKAAIARMEGDYGYVRLPGFNEKATDALASSVSELKSKNPKMKGLILDLRNNPGGLLDQAVGVADVFLDGGEVVSQRGRDPRNIQRYNARGGDMLNGLPMVVLINQGSASAAEIVAGALQDRKRAEVVGLTSFGKGSVQTVIPLRGGADGALKLTTARYFTPSGRSIQKTGIAPDLEVAQTRDQAQDIANRVWFSEASFKNALNADEGKSRVGAHTPAEAPPTGFDDKKGDFQLQRAIAVLQAGGVAKTPKLPKPAAKVAEVTAKAAAAAGGKTPVTEVK,failed
6,MRLAFWLYEGTALHGVSRVTNSMKGVHTVYHAPQGDDYITATYTMLERTPEFPKLSISVVRGQDLARGTSRLPGTVEQVDKHYKPELIVVAPSCSTALLQEDLGQMARASGVDQSKIMVYAVNPFRVAENEAAEGLFTELVRRFAAEQPKTEKPSVNLLGFTSLGFHLRSNLTSLRRMLKTLGIEVNVVAPWGAGIDDLKKLPAAWVNIAPFREIGCQAAGYLKEKFGMPSITEAPLGVNATLRWLRAIIAEVNKIGAEKGMAPMAMPELRDFSLDGQSAPSSVPWFARTADMESFSNKRAFVFGDATQVVGVTKFLKDELGMKIIGAGTYLPKQADWVREQLEGYLPGELMVTDKFQEVSAFIEEEMPELVCGTQMERHSCRKLDVPCMVISAPTHIENHLLGYYPFFGFDGADVMADRVYTSAKLGLEKHLIDFFGDAGLEYEAEEPEAFTEPTMSGNGTVASVSSAEAPSEAAVVTATATGELSWTAEAEKMLGKVPFFVRKKVRKNTDNYAREIGEPVVTADVFRKAKEHLGGLEHHHHHH,failed
7,MRLAGVGKSCLFAGRCAGIRPRRRLRWVLHFTATVPLNSMSSRRAFLRQCGLALAAAPALSSLPPWLSSADGFTSLRGGIGTFTQRGGTIGWLATDDGIAVVDTQSPQSAPDCWNGLRERSDSPLAMVINTHHHGDHVGGNGVFARHTDRLVAHANVPELMRAGAEDGAADEKTYPTETFQDTWSEPLGDETITLRYRGPAHTGGDAIVVFENANIVHVGDLVFNRAYPFIDVGGGADSQGWIDSLETIHGALDDDTIVIHGHGNPDFGVTGGREDLLVMRDFLSALNEYVTQQRQAGASLDEMKQTKVLDGFEAFNFDWALSLADCIEAVYREQTAG,failed
8,MRLDRNPWHWRIWVCIAVLALWPRAASADTITPERIADALSKLDALAQGAVADGGVPGLAIAVVHDDEVIFLRGFGHREAGKPEAVDADTVFQIASLSKPVSATVVAALVSDGIVSWDSKVADLDPAFRLADPYPTSQLTVRDLFSHRSGLPGTAGDDLEDIGYDRAEILHRLRFVPPSSSFRAGYSYSNFGLTEGAVAAAMPTGKSWEEVAQEKLYRPLGMASTSSRHSDFVKHADRAALHIKVDGAWAAKIERDPDAQAPAGGVSSTARDLSQWVRLILGNGVYAGKTLIAADALDQTHVPLMTRGKNPVSGGESFYGLGWNVEFGRHGLSWGHAGAFSVGARTLVTIFPQDKLGIVIIANAFPTGVPEGLSDSFADLVFDGSVQKDWVKAWDGIYAGMFGPVVEAAKATYAAPPSPARPARPASAYAGRYANDFFGDAVVASAGDGLVLKVGPHGARSYSLAHFDGDLFLTYPDAETPDRPTGVSFVVGPDGKASAMTIGFLDDNHLGTLRRVGD,failed
9,MRLGTFHKKKRFYINKIKINFLSFLFRNKINNQITDPAQVKSCLIIHDNNKLGDLIVLSSIYRELYSKGVKITLLTNRKGGEFLSNNKNIFEFCIKESTGFLEMLTLCKHLRDLQFDIVLDPFETMPSFKHSLILSSLKDSYILGFDHWYKRYYSFYHPHDECLKEHMSTRAIEILKHIYGEGKFSTNYDLHLPVDVEDKIKEFIGDTRIVIINPLGAKKICRLTFEQIKVIYQEVKTHFENYRIIFTGLPQDLLTIPILEIETLPFDEFIYTVALTKYSDFVISVDTALVHIAAAYHKPTLAFYPNSRTPEYPSHLIWSPNHHKSIQIVSPTYTVKDIDTETLTNSVKRLSCIDKK,failed
10,MRLINTTSSHPELVRNQLQNTDAKLVEVYSAGNTDVVFTKAPKHYELLISNKYRAIKDEELEAIREFFLKRKIDQSIIIQEQMKSLHTAKLIEISYPTTA,failed
11,MRLITNLLIIAILFSVPHVSIARIPEVVLSKKSAVVSIYVEDKQKIVAGGSGFIIDQNGIIVTNAHVIEPWNKSTTGILYVKKSDGTFLEPTEVIAADAVKDVALVRVKEQNLPFIKLTSNITPTQGDDVVVIGNPLGLETTVTDGIISAIRGEDGFLQISAPISQGSSGSPVLNSKGEAIGVATSIMAGGQNLNFAIPASYVTNLPTQEKAPPVKGLKKRAESPSGFETVTPEDIERDVVQIPEGAVHKGKVLFATDSGGYTYIRIEENGAPLWVAVTQTTISIGDIIEFPDSPPMTGFNSKSMNMTFDKITFAAGIRIVQRGNVEFKSPEEKHLYYAEQYSSMNNTPAAIEEISKAIELNPKKAEYYGKRANYYLQRRMYADSKSDEYQQIVASNRESCRNAVDDLNKAIAINPGNDVFYATQARIFTDSLFCDYANADKAIKLYETAIQLNPKKADYYVEKGWQHKIKNDFSKVLDCAKKALSISPNNEDAHYLYGSYYEENNKYDKALEYYTKGLSVSDNVTFGYFYIDGVMEKTKKYDDAVRIYTDLIKQHPKRLIFYNGRAEYYAKLKNYKKAIADYTTCIKLNPNSEYNYNLRANCYYEDGKKSEALTDYRTACDMKHAESCEMIPIVFADIKRGANWVPVAASSDVNYYYDKKGYTKNKNGVAVAWIRGEITDKEEYIKDIDISEYEKEKYKNVSHVMSRFEVDCPNQKLRVPISLIYAENGNVIRSYEDEKTKYSNIIPNSIGASIHENLCKGAPAKKIGKKK,failed
12,MRLLHTSDWHLGRSFHGVGMLDAQRNFVDQLVSLVQSKSVDVVLIAGDVYDRALPGLDVVKLLDDALVRITQAGAGVVLTSGNHDSAIRLGFASRLLERGGVHLRTKVEDIDVPVLFPLGGDENAKNSTLNGQVVVYGIPYLEPRLVAERLGAENANHFDVTLAAVERIRRDVEARRASGPVYPVVLAHTFASGGITSESERDLSIGGLGAVPLDLFDDFAYTALGHLHGRQELAPHVRYSGSPLAYSFSEAKHHKGAWLVDLDAGGVIAVEEVLWEAPKALATLRGTLDDLLGAEEHAWAENAYCQITLTDTQRPAQAMERVRTRFPDTLVLSFDPQGAAARTSTSYSNRLAEAEDDLGVCCGFLDHVRDRDASDAEEAALREALEAVRLQEAEL,failed
13,MRLLSSPINRGFFDYVELYPSLVSSYFPPPDRPSAVLSVGETRYVNSVKQTASLDSLNDYEEQFPPLTGGSKTKKFYLGSTNPSTPCQSSQLQNWTSGKDALSLQRNLGCKNRRRRRASRFLHEESNGTTFEVGAGIGSPTSMVHFDSTNPSSSSKSSQSQNLKIRKVRNHRNSGFKSRDQSPQRIKDPPPFDICSSVLERNDTSIKDWILADETNRETVEVSNKHKVIRPGMVLLKDFLTPDIQVDIVKTCRELGVKPTGFYQPGYSVGSKLHLQMMCLGRNWDPQTKYRKNTDIDSKAPEIPVTFNVLVEKAIREAHALIDRESGTEDAERILPVMSPDICIVNFYSETGRLGLHQDRDESEESIARGLPIVSFSIGDSAEFLYGEKRDVEEAQGVILESGDVLIFGGESRMIFHGVKSIIPNSAPMSLLNESKLRTGRLNLTFRHF,failed
14,MRLLVSCVDSGSIKEVLCNIGTDTSVQSALQPFHVAPHLAEGLKAYVDRMWVISEDEAILARNSGVVELVKISKHLKENEALQVDPKGESKNEKSLSDDLPKFDISEFEITSSVSDLFDDAKLESLSSKSVKRTKLVDGFVTLCPIKKDSSNNTFVAATKSGLLHIIKKGEDKKLIKLASLGLKAPVEFLQLYDLEDTDTDKYIFAYGGEENLIKLVEIDSSFQSLKQIWEAKNVKNDRLDMRVPVWPMALRFLEPSPGKTEKGKLNYQFAAITRWSHLTKYSTQHGRKPFAQIDLLPNREPLSQMEVFDAKGENVVSSLGNFQSETFNELNVITTDYKKNVFKFDGNGRMLGKVGRDDITGSSTYIHVHDGKYLLQGGLDRYVRIFDIKTNKMLVKVYVGSRINFIVMLDDVEIEMPLSPSAKAAKGKQKRKVTELEEDADELWNKLEGKVAASKASKKSKI,not failed
15,MRLMDILEILYYKKGKEFGILEKKMKEIFNETGVSLEPVNSELIGRIFLKISVLEEGEEVPSFAIKALTPKENAVDLPLGDWTDLKNVFVEEIDYLDSYGDMKILSEKNWYKIYVPYSSVKKKNRNELVEEFMKYFFESKGWNPGEYTFSVQEIDNLF,not failed
16,MRLPLNQRVAILLHEGTTGTIGKTGLALLRYSEAPIVAVIDRNCAGQSLREITGIYRYVPIVKSVEAALEYKPQVLVIGIAPKGGGIPDDYWIELKTALQAGMSLVNGLHTPLANIPDLNALLQPGQLIWDVRKEPANLDVASGAARTLPCRRVLTVGTDMAIGKMSTSLELHWAAKLRGWRSKFLATGQTGVMLEGDGVALDAVRVDFAAGAVEQMVMRYGKNYDILHIEGQGSLLHPGSTATLPLIRGSQPTQLVLVHRAGQTHNGNNPHVPIPPLPEVIRLYETVASGGGAFGTVPVVGIALNTAHLDEYAAKEAIAHTIAETGLPCTDVVRFGADVLLDAVMQN,not failed
17,MRLRHLSDPDSLPALDKSFAIERPALGLAPDAPPVRILLLYGSLRARSFSRLAVEEAARLLQFFGAETRIFDPSDLPLPDQVQSDDHPAVKELRALSEWSEGQVWCSPERHGQITSVMKAQIDHLPLEMAGIRPTQGRTLAVMQVSGGSQSFNAVNTLRLLGRWMRMFTIPNQSSIAKAFQEFDAAGRMKPSPYYDRIADVMEELVRFTALVRPHREALTDRYSERKAAGHVIDEATDLSSIAIAPQPLPESETS,not failed
